Results on four molecules are retold here after patent US20080280827A1.

Data set [1] addresses recombinant human LAP (R & D) (UniProt P01137).
Data set [2] concerns the target plasmin/plasma kallikrein. The data set can be described thus: cell-based or functional assay.

Chain of recombinant human LAP (R & D) (P01137 whole entry, looked up): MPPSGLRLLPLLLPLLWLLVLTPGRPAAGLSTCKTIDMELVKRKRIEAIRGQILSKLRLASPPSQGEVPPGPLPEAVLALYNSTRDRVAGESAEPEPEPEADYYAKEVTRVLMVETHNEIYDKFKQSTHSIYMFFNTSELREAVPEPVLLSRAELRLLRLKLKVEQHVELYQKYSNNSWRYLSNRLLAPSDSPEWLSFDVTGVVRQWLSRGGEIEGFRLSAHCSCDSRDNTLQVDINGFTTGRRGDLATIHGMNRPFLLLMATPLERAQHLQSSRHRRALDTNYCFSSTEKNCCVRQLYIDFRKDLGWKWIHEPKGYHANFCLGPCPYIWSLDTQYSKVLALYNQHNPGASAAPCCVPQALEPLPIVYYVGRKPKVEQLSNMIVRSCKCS

For the molecule plasma kallikrein (SIGMA), the “LAP cleavage reaction (western blot: LAP 41 kDa, LAP degradation product 38 kDa)” value in data set [1] was “attenuation of LAP band found in panel A, and generation of LAP degradation product found in panel B”.

B1: QP peptide (Gln-Ile-Leu-Ser-Lys-Leu-Arg-Leu-Ala-Ser-Pro) (peptide)
peptide: QILSKLRLASP
Regarding B1, the inhibition of generation of active TGF-β in conditioned medium of rat hepatic stellate cells (ELISA, peptide 0.5 mM) in data set [2] was found to be 55%.

B2: QPQ peptide (peptide)
peptide: QILSQQQQASP
For the molecule B2, in data set [2], the inhibition of generation of active TGF-β in conditioned medium of rat hepatic stellate cells (ELISA, peptide 0.5 mM) worked out at 90%.

B3: T200 peptide (Thr-Gly-Val-Val-Arg-Gln-Trp-Leu-Ser-Arg-Gly) (peptide)
peptide: TGVVRQWLSRG
Take B3: in data set [2], the amount of active TGF-β generated into the conditioned medium, relative to control was 74 % of control.
